Amyloid nucleation score data for 141 substances are collected here from the supplement of paper PMC12042874.

± gives the uncertainty stated by the source.

The data set is described as follows: amyloid nucleation score (Sup35N fusion, yeast selection) (log enrichment); library NNK2; higher = more nucleation; inactive = no reads after selection. The method, boiled down: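 Using DiMSum, nucleation scores were taken as the log enrichment of output over input reads, centred on the mode score of non-aggregating sequences. The input and output reads came from Illumina sequencing of plasmid inserts, with sequences under 100 input reads excluded. The yeast were psi-negative, expressed Sup35N fused to peptides of 20 random codons, were induced with 100 μM copper sulfate for 24 hours, and were grown 7 days at 30°C on medium lacking adenine and uracil.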
The substance TIIKDIVIVDVFSSN showed an amyloid nucleation score of 1.53 ± 0.15. Next, TITNCP: “inactive”; TIWGYARC: 2.67 ± 0.11; TIYHSGRCLRKKGRELW: -0.139 ± 0.37. In turn, TIYPDMETHLV gave an amyloid nucleation score of -0.075 ± 0.49. For the substance TLAFVNNYDLRLELDRIEVP, the amyloid nucleation score result was “inactive”. In turn, TLCGFNKGAAIGWCTWNSEK returned an amyloid nucleation score of 4.05 ± 0.13. TLCMRLN returned an amyloid nucleation score of 1.64 ± 0.086. TLETSNILFYGEDVKLSSQV: the amyloid nucleation score was 0.078 ± 0.34. Next, TLFSLREGLFNGIWTVSLSW: -1.09 ± 1.1; TLGKVGHYRRNNNMPVARFD: -0.11 ± 0.74.

Turning to TLGLLDHWSLREWDTTGWVE, the amyloid nucleation score was 0.691 ± 0.37. For the substance TLHFKFMVIRRN, the amyloid nucleation score is -0.254 ± 0.63. Regarding TLHKLFQMNLGRR, the amyloid nucleation score is -0.738 ± 0.44. Regarding TLHWSMR, the amyloid nucleation score came to 8.355 ± 0.034. Substance TLIGKFRTNNFRSMVDAESK returned an amyloid nucleation score of -0.59 ± 0.63. TLLDNRRGCVMSWRGFLWMR had an amyloid nucleation score of -0.363 ± 0.65. Take TLLKHTSSTSIVYRRHALEI: the amyloid nucleation score is 1.35 ± 0.29. Consider TLLLDQCDSRVDFWSNVP, for which the amyloid nucleation score was -0.088 ± 1.1. As to TLLSFRTVDNKIYKVLWVKT, the amyloid nucleation score came to 0.418 ± 0.48. Take TLLWYCTIADRNSNVRMVAS: the amyloid nucleation score was determined as 0.966 ± 0.24.

On to TLNVRIAS, for which the amyloid nucleation score is -0.124 ± 0.62.

The substance TLPWFGSFLRGVFKVPLIRG registered an amyloid nucleation score of 2.27 ± 0.1. Next, TLQKELSHVQETRYTW: -0.288 ± 1; TLSHPWADLLVSETHMVYR: -0.381 ± 1.1; TLSLSYALLSCVSVIKCPLV: -0.451 ± 0.79. In turn, TLSSFL registered an amyloid nucleation score of -1.55 ± 0.41. With TLVCSKAFKYVGV, the amyloid nucleation score came out at 0.131 ± 0.46. Next, TLVCWCLIFNVDKPFCVLML: “inactive”; TLWEGVFKRSWLGVSGSKVE: 0.401 ± 0.23. For the substance TLWVWVCCFQDWCSVSRGGR, the amyloid nucleation score came to 8.892 ± 0.03. TMCMPAHMPYQHVSYLDILT yielded an amyloid nucleation score of -0.161 ± 1.1. As for TMFEGFRCLRR, the amyloid nucleation score was 0.923 ± 0.81. Next, TMGTSSLVSAQLICRGTLAK: 0.172 ± 0.62; TMKHLFRDGRSIRLLTCWVS: -0.931 ± 0.42. As for TMLCYYINFRLIVYRSWYKQ, the amyloid nucleation score is -0.788 ± 0.34. Next, TMLEFNCSYLNI: 2.98 ± 0.083; TMLFTALDASHWG: 6.696 ± 0.05. The same measure for TMMSQVGMDR: 0.377 ± 0.34; for TMPFWKDFQT: 0.183 ± 1; for TMRYMVQMLRFEQSGLGQWV: 4.19 ± 0.076.

Substance TMSVDCWLCNLRMEMFLELY showed an amyloid nucleation score of -1.54 ± 0.75. With TMWYIGKITRPSLRAGSGFT, the amyloid nucleation score was -1.16 ± 0.48. Turning to TNGYSVRLYKGSCVILIGL, the amyloid nucleation score is 5.12 ± 0.092. The same measure for TNITGVIRVL: -0.211 ± 0.31. The same measure for TNLRAPEHHSHYCSRLRLD: -0.267 ± 0.35; for TNLYNDIGDRMFSSNWSTPV: -0.02 ± 1.1; for TNYKRCCV: -0.12 ± 0.32. In turn, TPIVGMLY came in with an amyloid nucleation score of -0.477 ± 0.55. TPLEYF: the amyloid nucleation score is -0.19 ± 0.3. Next, TQCRFRTSRVDICKIVKPGS: 0.177 ± 0.65; TQMTMEGAYPCCVVVP: 0.903 ± 0.74; TQNTTYNAYMNLKE: -1.24 ± 1.1. Next, TRCGE: -0.134 ± 0.25; TRGKRVPPDVLSSPKRIANV: 1.12 ± 0.46. With TRISGLGPDRDFSFRAASAK, the amyloid nucleation score is -0.446 ± 0.76. TRKILEMVFLLTAVNYNGVP: the amyloid nucleation score was -1.12 ± 0.26. Regarding TRMVCSFRCQESVPEP, the amyloid nucleation score is 0.775 ± 0.8. TRPLFTFRAMVDTRIHVFPM had an amyloid nucleation score of 0.201 ± 0.8. TRQLIYHWDKFSPHPAQFLT: the amyloid nucleation score is 0.652 ± 0.64. The same measure for TRRARSDSDLMCRDRVSVDN: -0.249 ± 0.35.

TRSRKWHRGS yielded an amyloid nucleation score of 1.14 ± 0.32.

Turning to TRYRLDACRGHAWYSVFFLM, the amyloid nucleation score is -0.286 ± 0.49.

As to TRYTRGSALCTLDGKIYMMK, the amyloid nucleation score came to 1.29 ± 0.4. Consider TSDPCFFCNST, for which the amyloid nucleation score was -0.381 ± 0.79.

As to TSECPVWNSFYVQNGSDLSI, the amyloid nucleation score was determined as 1.34 ± 0.14. Next, TSFSG: 0.56 ± 0.38; TSGFRKHNVQRRLECTPGDW: 1.14 ± 0.31; TSHSCGYLWCSLV: 0.211 ± 0.61. In turn, TSNSTQLEDLV registered an amyloid nucleation score of 0.309 ± 0.45.

Take TSQTCLEVSRSCCVGMRKSK: the amyloid nucleation score was found to be 0.192 ± 1. TSRLHNFATRIIVCYRLLMQ registered an amyloid nucleation score of -0.525 ± 1.1. Substance TSSFEARRRGWLTDEGVLFY yielded an amyloid nucleation score of 0.784 ± 0.54. TSSTLGLYSHDMPTATHLME showed an amyloid nucleation score of -0.176 ± 0.41.

For the substance TSSVPGLRSWVWVKQDSDRW, the amyloid nucleation score came out at 1 ± 0.19.

The substance TSTTYRLYKLGQFLARPANQ registered an amyloid nucleation score of -0.637 ± 1.1. In the case of TTDLYEMLWTFWSINRNSKS, the amyloid nucleation score was -0.071 ± 0.61. Regarding TTGRTYIRLIYIMCVSMNVS, the amyloid nucleation score entry is “inactive”. In the case of TTRSIMQCDLGTNPFDNTCS, the amyloid nucleation score was 0.203 ± 0.41. The same measure for TTSQFGLGGICPDNSTGLLA: -1.31 ± 1. Next, TVAVGVIV: “inactive”. The substance TVIAEPIRDEQCTIYHRCGV displayed an amyloid nucleation score of 0.554 ± 0.38. On to TVKCYNL, for which the amyloid nucleation score is 0.268 ± 0.46. For the substance TVLLSLSYADCSMLWLVRTL, the amyloid nucleation score is -0.304 ± 1.1.

In turn, TVSPPLVVFAFRISLRSLRP had an amyloid nucleation score of 1.12 ± 0.4. In turn, TVTRLSYGMFHQRNRVC gave an amyloid nucleation score of -0.267 ± 0.45. The substance TVVVYIRYRTPMRMVTPPSQ displayed an amyloid nucleation score of 0.986 ± 0.21.

Substance TVYNDNFVCRILNLDITILF returned an amyloid nucleation score of 6.957 ± 0.053.

TWQIFFGIFGFSFY had an amyloid nucleation score of 4.18 ± 0.062. For TWQVMRRYLENPDGSL, the amyloid nucleation score is -1.03 ± 0.62. Take TWRNYS: the amyloid nucleation score is -0.279 ± 0.35. The substance TWRVP had an amyloid nucleation score of 0.884 ± 0.55. In turn, TWVLSWSIPNCARGFLSWWI displayed an amyloid nucleation score of 0.672 ± 0.18. With TWVVRVGFMLAYLKQR, the amyloid nucleation score stood at 2.63 ± 0.093.

For TWYPIAFKTGCEMLTERSM, the amyloid nucleation score was 6.435 ± 0.035. The same measure for TYEMTRMSGIKSSLLPREFW: 1.52 ± 0.17; for TYGVLVNIGGWIDTFGWKLK: 6.662 ± 0.049; for TYHCN: 0.765 ± 0.43. In the case of TYTKFISILRSALSLMYLAS, the amyloid nucleation score is 0.972 ± 0.67.

Substance TYVCDNTESYTCLWLL yielded an amyloid nucleation score of 7.791 ± 0.038. As for TYVMPSVVIKNCH, the amyloid nucleation score was -0.267 ± 0.79.

In turn, TYVYKYLFWSIPCMA registered an amyloid nucleation score of 0.715 ± 0.66.

The substance VADHVCFVCRHTLDP returned an amyloid nucleation score of -0.317 ± 0.62. In the case of VAHSVTGFQWHACSREMNFR, the amyloid nucleation score was found to be 4.57 ± 0.12. VAKRISHGIQLSLSCKGTRP came in with an amyloid nucleation score of 0.138 ± 0.76.

Regarding VAKYLHYMSWVWRFMAWSYV, the amyloid nucleation score was -1.15 ± 1. In the case of VALMYFRFQKFDSSSSMHRF, the amyloid nucleation score came out at 2.5 ± 0.18. VALQWMG showed an amyloid nucleation score of 2.2 ± 0.19. With VALSSVFKEESCRVIRIMES, the amyloid nucleation score is -1.02 ± 0.32.

VAMVVRGTLYPALCPTYWVS came in with an amyloid nucleation score of 2.25 ± 0.11.

With VANNTGAKSYVFMARNAMCF, the amyloid nucleation score is -0.602 ± 0.49. VAQSRLT yielded an amyloid nucleation score of 0.521 ± 0.8.

As to VAVVFTKYSSRTYLGVGSVG, the amyloid nucleation score came to 4.21 ± 0.07. As for VAYVQCD, the amyloid nucleation score came to 0.035 ± 0.39. In turn, VAYYLCAGTSGDTFGKANQS registered an amyloid nucleation score of 0.222 ± 0.8. VCASYMQFIDHCSKKEVWLN: the amyloid nucleation score is -1.1 ± 0.44. Take VCFCQAFYGTRYHKCLVGLF: the amyloid nucleation score result is “inactive”. In turn, VCFGIKWSMLCWYFMDGGQQ came in with an amyloid nucleation score of 2.05 ± 0.16. With VCGGVRYYLNTFYIKR, the amyloid nucleation score came out at 7.566 ± 0.054. The same measure for VCNSLCDSYF: -1.28 ± 0.56; for VCQLQYILRNMLDKTRVSQD: 0.912 ± 0.26. Next, VCRVFIKLYI: 1.03 ± 0.21. Next, VCVIISLHRV: 4.99 ± 0.058; VCVLGIGT: “inactive”. VCWGFSFATHGLWDMAF displayed an amyloid nucleation score of -0.32 ± 0.26. As for VCWTNSWVCNSGVLSGVGAA, the amyloid nucleation score stood at 1.41 ± 0.18. The substance VCYAGLLAKRLRLVVVSGNV displayed an amyloid nucleation score of 0.531 ± 0.26. VCYIPYMLRSHLNALTFLSV came in with an amyloid nucleation score of -0.492 ± 0.76.

The substance VCYKYRTCYIYISFRSNFST displayed an amyloid nucleation score of -1.04 ± 1.1. For the substance VCYRSKASILLYGTPGGVRV, the amyloid nucleation score was -0.184 ± 1.1. The same measure for VDANIHWTCNSG: 0.322 ± 0.38; for VDFLLYLVSSTFGRARKWVY: -0.425 ± 0.27; for VDGTFYLTYFTTCVQSIFFA: 0.558 ± 0.6. VDGVKTSIKGRNFI showed an amyloid nucleation score of -0.259 ± 0.45.

Take VDLAR: the amyloid nucleation score entry is “inactive”.

VDLCDFCKLVASMVEDGSRE: the amyloid nucleation score result was “inactive”.

VDLGNYSSYRDFRETRLRPM displayed an amyloid nucleation score of 0.229 ± 0.39. As for VDLTIVHRGGGAGMGSNRVK, the amyloid nucleation score came out at 0.176 ± 0.24. With VDMPTSQFVTSTTLGTLVTM, the amyloid nucleation score is 2.32 ± 0.12. Take VDPPLGKWGAEGCI: the amyloid nucleation score came out at 0.484 ± 0.51.

In turn, VDRMVDIMCTTKKMIHAF came in with an amyloid nucleation score of 1.45 ± 0.4.
